Measured values reported in article PMC2921846.

Molecular target: PKCα-YFP (mouse) (UniProt P20444)
Test: FRET or BRET

FRET efficiency: 7.19%
Substance: Erk-CFP (from UniProt P63085 1-358) (natural protein)
